We go through 116 sequences from the supplement of paper PMC10724198.

± gives the standard deviation of the averaged measurements.
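Note: PSI is a weighted mean of sequencing reads over stability bins, variants kept only with over 10 reads, mCherry proximal and sfGFP distal, peptide attached via GGGS linker.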

In the data set the test system is Saccharomyces cerevisiae. The data set can be described thus: protein stability index of tFT-peptide fusion (C-terminal peptide) (PSI (0-1 scale)); higher = more stable (slower turnover). The following applies: genetic background: wild type; temperature: 30 C.
Consider KKEKNQEKRKKE, for which the protein stability index came to 0.657 ± 0.021.
Sequence KKEKSQTKKQNI gave a protein stability index of 0.684 ± 0.12.
Then KKEKVKKKKGNN, with 0.723 ± 0.013; and KKEKYIQIRTID, with 0.627 ± 0.033.
Then KKEQKFKEDSDR, with 0.677 ± 0.019; and KKEQKSKTEMRK, with 0.7124 ± 0.0037.
For the sequence KKGKEKEVKKKK, the protein stability index stood at 0.646 ± 0.074.
Then KKGKKRNKTAKQ, with 0.628 ± 0.062; and KKGNKYNNKRKK, with 0.69 ± 0.04; and KKGRTVEKKKGD, with 0.694 ± 0.0039.
Then KKGSSKKKKPVE, with 0.6581 ± 0.0062.
Then KKHTLNENKMKE, with 0.652 ± 0.011.
For KKICPDFGLLLV, the protein stability index came to 0.591 ± 0.004.
Then KKIEHRVLNELK, with 0.6288 ± 0.00069; and KKIKKHEKKKNK, with 0.721 ± 0.053; and KKIRKKLKKMKM, with 0.644 ± 0.053.
KKITTDNKKNKI gave a protein stability index of 0.651 ± 0.067.
KKKEKKRKEEKN registered a protein stability index of 0.824 ± 0.052.
Then KKKIKNKTNEEK, with 0.647 ± 0.038; and KKKKEEKNRQES, with 0.7 ± 0.077; and KKKKIKKKTKKE, with 0.667 ± 0.027.
The value for KKKKKEQKTNQT was 0.697 ± 0.022; that for KKKKKHTQYKRK was 0.6997 ± 0.0026; that for KKKKKKKIRKKI was 0.682 ± 0.029.
Sequence KKKKKKKKDNKL had a protein stability index of 0.781 ± 0.099.
Then KKKKKKKKHEQK, with 0.678 ± 0.09; and KKKKKKKKKKRK, with 0.685 ± 0.01; and KKKKKKKKKNKK, with 0.679 ± 0.048.
Then KKKKKKKKTKKR, with 0.637 ± 0.044; and KKKKKKKTQTNK, with 0.692 ± 0.015.
The value for KKKKKKNKKKTQ was 0.734 ± 0.04.
KKKKKKQKKKIQ registered a protein stability index of 0.741 ± 0.05.
Then KKKKKNKKKTIK, with 0.6886 ± 0.0046; and KKKKKNKKNKKY, with 0.709 ± 0.038.
Then KKKKKNSRKKQQ, with 0.7108 ± 0.0018; and KKKKKNTKVYNE, with 0.703 ± 0.13; and KKKKKQIKKQKK, with 0.586 ± 0.02.
Then KKKKKQKKKKRK, with 0.682 ± 0.013.
KKKKKVKITGKK yielded a protein stability index of 0.766 ± 0.018.
Then KKKKNKQKQIET, with 0.759 ± 0.07.
The value for KKKKQKKNKKKK was 0.6602 ± 0.0052; that for KKKKSKIKKKRE was 0.665 ± 0.042.
Then KKKKTKKKEQKE, with 0.693 ± 0.012.
In turn, KKKPKKQRKNKR registered a protein stability index of 0.684 ± 0.013.
The value for KKKQKTIYRQKE was 0.64 ± 0.089.
Then KKKRKRKRSRRK, with 0.639 ± 0.03; and KKKRTKKEREKK, with 0.6612 ± 0.0032; and KKNKKNKKKKKN, with 0.63 ± 0.082.
Then KKPVALVESRRV, with 0.662 ± 0.055.
With KKQKKKTKANKT, the protein stability index came to 0.673 ± 0.041.
The value for KKREEKKEKRKR was 0.643 ± 0.054; that for KKRGNYKTTESN was 0.687 ± 0.0076.
Consider KKRILNRKKEER, for which the protein stability index is 0.705 ± 0.052.
Sequence KKRMKKKTKNKN registered a protein stability index of 0.652 ± 0.019.
The value for KKRNMRINSKKQ was 0.7 ± 0.022.
In the case of KKRRNRIKKSAK, the protein stability index was 0.689 ± 0.14.
Then KKRVSKETDKVK, with 0.693 ± 0.027.
Then KKSKDKRNPKKK, with 0.692 ± 0.028.
Then KKTKEQEGEKTE, with 0.679 ± 0.026.
Sequence KKTKKKQQGKIQ displayed a protein stability index of 0.702 ± 0.017.
Then KKTKNKKKQNGK, with 0.6863 ± 0.0012; and KKTPKKKHKKKR, with 0.679 ± 0.12; and KKYIEKKFNIQK, with 0.664 ± 0.03.
Sequence KKYKKKKKRARY had a protein stability index of 0.698 ± 0.019.
Then KLAHVKIKKTGK, with 0.652 ± 0.018; and KLKIINENKLQN, with 0.618 ± 0.087; and KMGGKRTKKIGQ, with 0.694 ± 0.086.
With KNADHPRKDEQP, the protein stability index was 0.661 ± 0.095.
The value for KNEESTKREGHF was 0.669 ± 0.063.
On to KNIKENIGDKNK, for which the protein stability index was 0.646 ± 0.06.
KNKEISQIYIKN had a protein stability index of 0.662 ± 0.027.
Then KNKIRLLNKTSK, with 0.6717 ± 0.0014.
The value for KNKKKNTIKKNK was 0.684 ± 0.018.
KNKREKKKENTK yielded a protein stability index of 0.682 ± 0.0078.
KNKVTRNEKGIT returned a protein stability index of 0.639 ± 0.047.
The value for KNNKKQRNRTGE was 0.669 ± 0.017.
Then KNNKSERIEKEQ, with 0.701 ± 0.08; and KNNNREKLRQSM, with 0.623 ± 0.056.
The value for KNTKRQIKKNKK was 0.662 ± 0.17.
In the case of KNWRMKKDHKQA, the protein stability index came to 0.657 ± 0.024.
The value for KQERCCEEREEK was 0.729 ± 0.024; that for KQHTEQIDRRTG was 0.6635 ± 0.0036; that for KQKKAKKQKKKK was 0.69 ± 0.099.
The value for KQKKKIKIQNKT was 0.689 ± 0.12; that for KQKKNEENTKKT was 0.735 ± 0.064.
Then KQKKNKKKKQNR, with 0.699 ± 0.036.
Turning to KQLEKYKDIRRK, the protein stability index is 0.665 ± 0.061.
For KQNKIIKKRKKK, the protein stability index is 0.659 ± 0.067.
Then KQRGTRGNKANE, with 0.6231 ± 0.0058; and KQRKIKKNIINH, with 0.707 ± 0.015.
Then KQRKSESGSNTV, with 0.686 ± 0.057; and KREARGERGKGE, with 0.644 ± 0.04; and KRETKSKGQAQA, with 0.602 ± 0.042.
The value for KRGIHKLVNEVG was 0.683 ± 0.011; that for KRGRRKLQRGRQ was 0.679 ± 0.028.
Take KRGVVGFGKGGG: the protein stability index amounted to 0.6654 ± 0.0027.
The value for KRIDLDCSVAAD was 0.643 ± 0.022.
Then KRKAQEVNSKKK, with 0.703 ± 0.011.
The value for KRKENKKNKEKK was 0.669 ± 0.042.
Regarding KRKREKKLKKYK, the protein stability index worked out at 0.634 ± 0.037.
The value for KRLKKKRNRAKA was 0.683 ± 0.031; that for KRLTSKVKTITG was 0.694 ± 0.031; that for KRNKDYGSFEVT was 0.629 ± 0.029.
Then KRRKKKKQSGGK, with 0.645 ± 0.023; and KRSIEIRTKIKL, with 0.7 ± 0.022.
The value for KRTRRADVGKED was 0.65 ± 0.064; that for KRVGLRLCGRLT was 0.704 ± 0.04; that for KRVSGSEQDIAT was 0.6561 ± 0.0026.
The sequence KRYKSYEDKNVM displayed a protein stability index of 0.696 ± 0.033.
The value for KSEIRDGRFPSC was 0.589 ± 0.011; that for KSEMAIIEKKEN was 0.667 ± 0.055; that for KSGVWLWVGGGG was 0.714 ± 0.033.
The value for KSKDKGEGKELK was 0.694 ± 0.088; that for KSKTRTKLYSRN was 0.6421 ± 0.0017; that for KSLSEKSKEKGS was 0.668 ± 0.034.
Then KSLYLVDDRVGR, with 0.764 ± 0.078.
